The supplement of paper PMC9112550, “Optimization of the antimicrobial peptide Bac7 by deep mutational scanning” (BMC Biology, 2022)

Tested on: Escherichia coli TOP10
Assay: shrunken log2 fold change of peptide-encoding DNA abundance (4.5 h post-induction vs induction); higher = less antimicrobial activity (less host growth inhibition)
Conditions: time post-induction: 4.5 h; library: site-saturation at positions 5, 18, 19, 20
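Further: peptides expressed intracellularly from a pBAD plasmid library in pooled LB shake-flask culture, induced with 0.3% L-arabinose, DNA abundance read by NGS, three biological replicates, DESeq2 with apeglm shrinkage.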

| Sequence | shrunken log2 fold change |
| --- | --- |
| RRIRMRPPRLPRPRPRPWAHPRP | -0.091 |
| RRIRMRPPRLPRPRPRPWCPPRP | -0.101 |
| RRIRMRPPRLPRPRPRPWDLPRP | 0.36 |
| RRIRMRPPRLPRPRPRPWDPPRP | 0.287 |
| RRIRMRPPRLPRPRPRPWFTPRP | -0.263 |
| RRIRMRPPRLPRPRPRPWGKPRP | 0.0449 |
| RRIRMRPPRLPRPRPRPWIHPRP | -0.0313 |
| RRIRMRPPRLPRPRPRPWIRPRP | -0.167 |
| RRIRMRPPRLPRPRPRPWKPPRP | -0.0836 |
| RRIRMRPPRLPRPRPRPWLRPRP | 0.0433 |
| RRIRMRPPRLPRPRPRPWMVPRP | -0.128 |
| RRIRMRPPRLPRPRPRPWPDPRP | 0.592 |
| RRIRMRPPRLPRPRPRPWPIPRP | -0.00141 |
| RRIRMRPPRLPRPRPRPWPMPRP | 0.304 |
| RRIRMRPPRLPRPRPRPWQEPRP | -0.107 |
| RRIRMRPPRLPRPRPRPWSRPRP | 0.163 |
| RRIRMRPPRLPRPRPRPWSSPRP | -0.145 |
| RRIRMRPPRLPRPRPRPWVGPRP | 0.171 |
| RRIRMRPPRLPRPRPRPWWTPRP | 0.0804 |
| RRIRMRPPRLPRPRPRPYAEPRP | 0.0571 |
| RRIRMRPPRLPRPRPRPYAQPRP | -0.291 |
| RRIRMRPPRLPRPRPRPYCQPRP | -0.0783 |
| RRIRMRPPRLPRPRPRPYCRPRP | -0.0603 |
| RRIRMRPPRLPRPRPRPYELPRP | 0.0224 |
| RRIRMRPPRLPRPRPRPYFYPRP | -0.53 |

| Sequence | shrunken log2 fold change |
| --- | --- |
| RRIRMRPPRLPRPRPRPYHNPRP | -0.47 |
| RRIRMRPPRLPRPRPRPYILPRP | -1.08 |
| RRIRMRPPRLPRPRPRPYLEPRP | -0.0515 |
| RRIRMRPPRLPRPRPRPYLIPRP | -0.463 |
| RRIRMRPPRLPRPRPRPYNMPRP | -0.348 |
| RRIRMRPPRLPRPRPRPYPRPRP | 0.112 |
| RRIRMRPPRLPRPRPRPYRLPRP | -0.0977 |
| RRIRMRPPRLPRPRPRPYSKPRP | -0.145 |
| RRIRMRPPRLPRPRPRPYSQPRP | -0.0394 |
| RRIRMRPPRLPRPRPRPYTEPRP | -0.245 |
| RRIRMRPPRLPRPRPRPYVRPRP | -0.313 |
| RRIRMRPPRLPRPRPRPYYIPRP | -0.227 |
| RRIRNRPPRLPRPRPRPADAPRP | 0.261 |
| RRIRNRPPRLPRPRPRPAEDPRP | 0.0275 |
| RRIRNRPPRLPRPRPRPAEEPRP | 0.119 |
| RRIRNRPPRLPRPRPRPAGGPRP | 0.16 |
| RRIRNRPPRLPRPRPRPAGIPRP | -0.0145 |
| RRIRNRPPRLPRPRPRPAHFPRP | 0.292 |
| RRIRNRPPRLPRPRPRPAHIPRP | 0.00258 |
| RRIRNRPPRLPRPRPRPAIWPRP | 0.13 |
| RRIRNRPPRLPRPRPRPAKQPRP | -0.0201 |
| RRIRNRPPRLPRPRPRPAMSPRP | -0.137 |
| RRIRNRPPRLPRPRPRPAMYPRP | -0.112 |
| RRIRNRPPRLPRPRPRPANHPRP | -0.208 |
| RRIRNRPPRLPRPRPRPANKPRP | 0.0716 |

| Sequence | shrunken log2 fold change |
| --- | --- |
| RRIRNRPPRLPRPRPRPAPCPRP | 0.0656 |
| RRIRNRPPRLPRPRPRPARHPRP | 0.0771 |
| RRIRNRPPRLPRPRPRPATNPRP | -0.0513 |
| RRIRNRPPRLPRPRPRPAVIPRP | -0.277 |
| RRIRNRPPRLPRPRPRPAVKPRP | -0.229 |
| RRIRNRPPRLPRPRPRPAWGPRP | 0.288 |
| RRIRNRPPRLPRPRPRPAYKPRP | -0.128 |
| RRIRNRPPRLPRPRPRPCAPPRP | -0.436 |
| RRIRNRPPRLPRPRPRPCDSPRP | 0.11 |
| RRIRNRPPRLPRPRPRPCDWPRP | -0.0698 |
| RRIRNRPPRLPRPRPRPCELPRP | -0.0966 |
| RRIRNRPPRLPRPRPRPCFEPRP | 0.00026 |
| RRIRNRPPRLPRPRPRPCFGPRP | 0.0347 |
| RRIRNRPPRLPRPRPRPCFQPRP | 0.012 |
| RRIRNRPPRLPRPRPRPCGCPRP | 0.0239 |
| RRIRNRPPRLPRPRPRPCGHPRP | 0.0743 |
| RRIRNRPPRLPRPRPRPCICPRP | -0.33 |
| RRIRNRPPRLPRPRPRPCMEPRP | -0.206 |
| RRIRNRPPRLPRPRPRPCNFPRP | -0.0737 |
| RRIRNRPPRLPRPRPRPCNPPRP | -0.378 |
| RRIRNRPPRLPRPRPRPCPPPRP | -0.328 |
| RRIRNRPPRLPRPRPRPCQPPRP | -0.0231 |
| RRIRNRPPRLPRPRPRPCQYPRP | -0.0135 |
| RRIRNRPPRLPRPRPRPCTHPRP | -0.147 |
| RRIRNRPPRLPRPRPRPCTMPRP | -0.199 |

| Sequence | shrunken log2 fold change |
| --- | --- |
| RRIRNRPPRLPRPRPRPCVIPRP | -0.318 |
| RRIRNRPPRLPRPRPRPCVLPRP | -0.202 |
| RRIRNRPPRLPRPRPRPCWEPRP | -0.0598 |
| RRIRNRPPRLPRPRPRPCWLPRP | -0.7 |
| RRIRNRPPRLPRPRPRPCYNPRP | -0.124 |
| RRIRNRPPRLPRPRPRPCYQPRP | -0.32 |
| RRIRNRPPRLPRPRPRPDEYPRP | 0.00318 |
| RRIRNRPPRLPRPRPRPDFQPRP | -0.156 |
| RRIRNRPPRLPRPRPRPDGTPRP | -0.128 |
| RRIRNRPPRLPRPRPRPDHFPRP | -0.0062 |
| RRIRNRPPRLPRPRPRPDHNPRP | -0.245 |
| RRIRNRPPRLPRPRPRPDIRPRP | -0.01 |
| RRIRNRPPRLPRPRPRPDLRPRP | -0.105 |
| RRIRNRPPRLPRPRPRPDLYPRP | -0.0459 |
| RRIRNRPPRLPRPRPRPDMAPRP | -0.0639 |
| RRIRNRPPRLPRPRPRPDMMPRP | -0.233 |
| RRIRNRPPRLPRPRPRPDNDPRP | -0.579 |
| RRIRNRPPRLPRPRPRPDNYPRP | -0.341 |
| RRIRNRPPRLPRPRPRPDPLPRP | -0.0328 |
| RRIRNRPPRLPRPRPRPDPRPRP | 0.562 |
| RRIRNRPPRLPRPRPRPDQNPRP | -0.017 |
| RRIRNRPPRLPRPRPRPDRLPRP | -0.038 |
| RRIRNRPPRLPRPRPRPDRPPRP | -0.151 |
| RRIRNRPPRLPRPRPRPDSDPRP | -0.00992 |
| RRIRNRPPRLPRPRPRPDTFPRP | 0.0183 |

| Sequence | shrunken log2 fold change |
| --- | --- |
| RRIRNRPPRLPRPRPRPDVDPRP | 0.0446 |
| RRIRNRPPRLPRPRPRPDVTPRP | 0.216 |
| RRIRNRPPRLPRPRPRPDWFPRP | -0.0803 |
| RRIRNRPPRLPRPRPRPDWNPRP | -0.212 |
| RRIRNRPPRLPRPRPRPDWYPRP | -0.0314 |
| RRIRNRPPRLPRPRPRPDYAPRP | -0.0367 |
| RRIRNRPPRLPRPRPRPDYWPRP | -0.21 |
| RRIRNRPPRLPRPRPRPEARPRP | -0.0678 |
| RRIRNRPPRLPRPRPRPECSPRP | 0.079 |
| RRIRNRPPRLPRPRPRPECWPRP | 0.616 |
| RRIRNRPPRLPRPRPRPEGDPRP | -0.043 |
| RRIRNRPPRLPRPRPRPEHVPRP | -0.0119 |
| RRIRNRPPRLPRPRPRPEICPRP | 0.0654 |
| RRIRNRPPRLPRPRPRPEISPRP | -0.126 |
| RRIRNRPPRLPRPRPRPEIVPRP | 0.106 |
| RRIRNRPPRLPRPRPRPELKPRP | 0.00533 |
| RRIRNRPPRLPRPRPRPEMDPRP | 0.294 |
| RRIRNRPPRLPRPRPRPENNPRP | -0.106 |
| RRIRNRPPRLPRPRPRPENQPRP | 0.216 |
| RRIRNRPPRLPRPRPRPENVPRP | -0.123 |
| RRIRNRPPRLPRPRPRPEPIPRP | 0.0458 |
| RRIRNRPPRLPRPRPRPEQGPRP | 0.111 |
| RRIRNRPPRLPRPRPRPESRPRP | 0.114 |
| RRIRNRPPRLPRPRPRPESWPRP | 0.362 |
| RRIRNRPPRLPRPRPRPEVTPRP | -0.0105 |

| Sequence | shrunken log2 fold change |
| --- | --- |
| RRIRNRPPRLPRPRPRPEWWPRP | 0.315 |
| RRIRNRPPRLPRPRPRPFAIPRP | -0.0909 |
| RRIRNRPPRLPRPRPRPFDLPRP | -0.176 |
| RRIRNRPPRLPRPRPRPFEQPRP | -0.0506 |
| RRIRNRPPRLPRPRPRPFEYPRP | -0.266 |
| RRIRNRPPRLPRPRPRPFFGPRP | 0.239 |
| RRIRNRPPRLPRPRPRPFHYPRP | -0.925 |
| RRIRNRPPRLPRPRPRPFIAPRP | -0.32 |
| RRIRNRPPRLPRPRPRPFIDPRP | -0.114 |
| RRIRNRPPRLPRPRPRPFITPRP | -0.783 |
| RRIRNRPPRLPRPRPRPFKAPRP | 0.0407 |
| RRIRNRPPRLPRPRPRPFKIPRP | -0.0688 |
| RRIRNRPPRLPRPRPRPFKKPRP | -0.263 |
| RRIRNRPPRLPRPRPRPFLLPRP | -0.295 |
| RRIRNRPPRLPRPRPRPFLQPRP | -0.206 |
| RRIRNRPPRLPRPRPRPFLVPRP | -0.0697 |
| RRIRNRPPRLPRPRPRPFMYPRP | -0.247 |
| RRIRNRPPRLPRPRPRPFPTPRP | 0.00541 |
| RRIRNRPPRLPRPRPRPFPWPRP | -0.084 |
| RRIRNRPPRLPRPRPRPFQWPRP | -0.212 |
| RRIRNRPPRLPRPRPRPFREPRP | -0.0373 |
| RRIRNRPPRLPRPRPRPFSDPRP | -0.246 |
| RRIRNRPPRLPRPRPRPFWWPRP | -0.0225 |
| RRIRNRPPRLPRPRPRPFYYPRP | -0.877 |
| RRIRNRPPRLPRPRPRPGASPRP | 0.412 |
